Experimental data: the supplement of paper PMC10126150
± gives the standard deviation of the averaged measurements.

tested on: ATP; assay: switch fluorescence ratio, 500 uM ATP over buffer (Cy3 cluster intensity, sum of 5 cycles each) (fold (ratio)); higher = stronger signal-on switching upon ATP binding; sequences stand for … in TCGTCGGCAGCGTCAGATGTGTATAAGAGACAGTTTTTTTTTTTTTTTTTTTTTTTTT…TC; conditions: aptamer strand: ATP DNA aptamer (quencher-CACCTGGGGGAGTATTGCGGAGGAAGG + anchor), 100 nM annealed; ATP concentration: 500 uM
Method in brief: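 Cy3-labelled switching-strand clusters on a modified Illumina MiSeq flow-cell were annealed to 100 nM quencher-labelled ATP aptamer, imaged in selection buffer, then imaged after 15 min with 500 uM ATP at 22 °C. Five buffer/ATP cycles ran, with NaOH stripping and re-annealing between them. The fluorescence ratio is summed target-cycle over summed buffer-cycle Cy3 intensity per cluster, averaged per switch-domain sequence. Clusters outside 100-1000 RFU were excluded.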
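Further: ATP exposure 15 min at 22 °C before imaging.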

Sequence	switch fluorescence ratio
TATGTGTCAG	0.977 ± 0.012
TATGTGTGAT	0.996 ± 0.013
TATGTGTGGG	1.01 ± 0.026
TATGTGTTGG	0.992 ± 0.025
TATGTTAGAT	1.002 ± 0.01
TATGTTAGTC	0.988 ± 0.054
TATGTTGCAA	1.01 ± 0.025
TATGTTGGAT	0.988 ± 0.012
TATGTTTATT	1.03 ± 0.011
TATGTTTCCT	1.02 ± 0.037
TATGTTTCGT	1.01 ± 0.041
TATGTTTGAA	0.984 ± 0.015
TATTAACCTT	1.6415 ± 0.00013
TATTAAGCAG	1.07 ± 0.038
TATTAAGTAT	1.01 ± 0.019
TATTAATGTG	0.974 ± 0.042
TATTACACAT	1.01 ± 0.04
TATTAGAGGT	0.997 ± 0.019
TATTAGATTC	0.9656 ± 0.0023
TATTAGGCAT	1.15 ± 0.23
TATTAGGCGC	0.982 ± 0.022
TATTAGGGGA	1.02 ± 0.013
TATTAGTCAG	1 ± 0.023
TATTATCTGC	0.971 ± 0.021
TATTATGACC	1.01 ± 0.043

Sequence	switch fluorescence ratio
TATTATGATC	1.03 ± 0.02
TATTATGGCA	1.02 ± 0.08
TATTATTGGT	0.992 ± 0.045
TATTATTTGT	0.994 ± 0.053
TATTATTTTG	1 ± 0.049
TATTCAACGG	1.02 ± 0.028
TATTCAAGTT	1 ± 0.024
TATTCAGGGG	1.03 ± 0.058
TATTCAGTGC	1.01 ± 0.046
TATTCATGTT	0.991 ± 0.029
TATTCCGCC	2.29 ± 0.033
TATTCGGGAG	1.0052 ± 0.00035
TATTCTCATT	0.977 ± 0.023
TATTGACGGG	0.9956 ± 0.0023
TATTGAGCGT	1 ± 0.044
TATTGAGGGG	1 ± 0.038
TATTGATAGC	1.014 ± 0.0083
TATTGCGGCA	1.011 ± 0.0051
TATTGCTTCT	0.9913 ± 0.0021
TATTGGGCCT	1 ± 0.051
TATTGGGGGA	0.995 ± 0.043
TATTGGGTCG	0.99 ± 0.023
TATTGGTTGT	0.999 ± 0.029
TATTGTCTTT	1.02 ± 0.025
TATTGTGACT	1.021 ± 0.01

Sequence	switch fluorescence ratio
TATTGTGGCT	0.9785 ± 0.0061
TATTGTGTAA	1 ± 0.023
TATTGTTCTG	0.9819 ± 0.0025
TATTGTTGTT	0.9949 ± 0.0063
TATTTAAAAG	1.003 ± 0.009
TATTTAAGGG	1.12 ± 0.16
TATTTAATCA	1.008 ± 0.0097
TATTTACAGG	1.033 ± 0.0084
TATTTAGGAC	0.99 ± 0.028
TATTTATATT	1.06 ± 0.029
TATTTATCGG	0.991 ± 0.013
TATTTATGTA	1.01 ± 0.045
TATTTCCTGT	0.993 ± 0.011
TATTTCGTGG	0.985 ± 0.024
TATTTGAAA	1.05 ± 0.059
TATTTGCGCA	1.06 ± 0.099
TATTTGCTTT	1.02 ± 0.015
TATTTGGGGA	0.999 ± 0.024
TATTTGGTCG	1.02 ± 0.047
TATTTGTATG	0.9919 ± 0.003
TATTTGTGCT	0.982 ± 0.011
TATTTTACCA	1.017 ± 0.0061
TATTTTCCTG	1.15 ± 0.18
TATTTTCGGT	0.986 ± 0.021
TATTTTCTCA	1.05 ± 0.049

Sequence	switch fluorescence ratio
TATTTTCTTT	0.982 ± 0.021
TATTTTGGGC	0.997 ± 0.046
TATTTTGGTG	0.984 ± 0.033
TATTTTTATA	0.992 ± 0.017
TATTTTTATC	1.03 ± 0.018
TATTTTTGCC	1.001 ± 0.0031
TCAAAAAGGA	1.01 ± 0.031
TCAAAACGGT	1.34 ± 0.51
TCAAAACTGT	1.07 ± 0.067
TCAAAAGGGA	1.02 ± 0.041
TCAAACTGGT	1.03 ± 0.028
TCAAACTTAT	1.05 ± 0.027
TCAAAGAAC	1.0338 ± 0.00026
TCAAAGGTTC	1.13 ± 0.16
TCAAAGTTGG	1.01 ± 0.022
TCAACCAAAA	1.02 ± 0.011
TCAACGTAGA	1.03 ± 0.014
TCAACGTGCT	1 ± 0.037
TCAACTGGTG	1.35 ± 0.16
TCAACTTTTT	1.01 ± 0.02
TCAAGACGCA	1.068 ± 0.0035
TCAAGAGGTT	1.001 ± 0.01
TCAAGCCATT	0.989 ± 0.022
TCAAGGAGTT	0.9773 ± 0.0047
TCAAGGCGGA	0.99 ± 0.012
